How the values were obtained:
[1] = Solubility of the substrates in the alanine dehydrogenase-coupled kinetic assay; format: physicochemical; settings: assay buffer; kinetic parameters cannot be determined
Excerpt: (§1) The alanine dehydrogenase-coupled assay has been used to determine some early kinetic parameters for p6 and p7. Reactions with C3 to C8 for p6 and C4 to CS have been fully characterised and show no clear trend in terms of reaction rate vs. carbon chain length. For C11 and C12, the solubility of the substrates is extremely low, and as such, kinetic parameters cannot be determined.
as §1, with “all the aforementioned enzymes.” for “p6 and p7.”, “C8 for p7” for “CS”

[2] = Coupled dehydrogenase assays for transaminase activity of the Pseudomonas sp. proteins and ancestral reconstructions; format: biochemical; settings: for activity of ancestral reconstruction proteins in the coupled assays: E. coli expressed, purified proteins
Protocol: Activity for each protein was assessed using coupled dehydrogenase assays as described previously. A typical assay comprised:
Substrate (6.25 mM final concentration in potassium phosphate buffer)
Co-substrate (pyruvate (0.5 mM final concentration) or α-KG (0.25 mM final concentration)
NAD (1.25 mM final concentration)
Dehydrogenase (1 μL from ADH-≧35 units/mL stock solution or GDH≧35 units/mg protein stock)
Transaminase (final concentration dependent)
Potassium phosphate buffer (100 mM)
UV absorbance at 340 nm was recorded at 28° C. over a pH range of 7.5-10 with a range of substrates.
Proteins encoded by p7N6, p7N15, p7N16, p7N17, p7N43 and p7N48 were expressed using an E. coli recombinant expression platform and subsequently purified.
Each of the proteins were assayed for substrate specificity. Substrates identified by assaying for each of the proteins are summarized below.

[3] = Large-scale (200 mL) p6 reaction analysed by GC-MS; format: biochemical; settings: C11 amino acid substrate, after seven days, oil analysed by GC-MS
Protocol: To corroborate the findings of the UV assay, a large-scale (200 mL) p6 reaction was carried out using C11 amino acid substrate. After seven days, the mixed reaction was allowed to settle and yellow oil was observed on the surface of the reaction. This oil was concentrated in vacuo and analysed by GC-MS. […] The diacid is thought to be the oxidation product of the semialdehyde formed by the transaminase, further supporting the findings of the UV assay.

[4] = Coupled assay of GabT with glutamate dehydrogenase (NADH formation at 340 nm); format: biochemical; settings: coupled GDH assay, NADH detected at 340 nm
Excerpt: DNA encoding the GabT protein from E. coli strain BL21-DE3 was amplified from genomic DNA using specially designed primers. The PCR product was restricted using NdeI and BamHI restriction endonucleases (NEB) and ligated (T4 DNA ligase, NEB) into a modified pET expression vector that had also been restricted using the aforementioned enzymes, and contained ampicillin resistance for selectivity. The vector was transformed into electrocompetent E. coli strain BL21-DE3 and transformants plated onto LB agar plates containing ampicillin (100 μg/mL) for selectivity. Transformant DNA was isolated and sent for sequencing to confirm the identity of the vector construct. […] The protein was purified using a HiTrap Chelating HP 5 mL column (GE Healthcare) for nickel affinity chromatography on an FPLC (Fast Protein Liquid Chromatography. GE Healthcare), exploiting an N-terminal His6-tag on GabT. SDS-PAGE confirmed the protein size.
Protein activity was confirmed using a coupled assay that comprised GabT and a commercially available glutamate dehydrogenase (GDH; Sigma Aldrich). The assay works as illustrated below, with the dehydrogenase catalysing the oxidative deamination of glutamate—the co-product of the GabT transamination reaction.
Therefore, although a viable biocatalyst for these substrates had been identified, it could not produce the desired longer chain (>C9) products. […]

NCCCCCCCCCCC(=O)O [C11, 11-aminoundecanoic acid]
solubility of the substrates [1]: extremely low

NCCCCCCCCCCCC(=O)O [C12, 12-aminododecanoic acid]
solubility of the substrates [1]: extremely low

B1: p7N43: de novo peptide sequence based on p7, produced by ancestral reconstruction; SEQ ID NO:11 (protein)
chain: MTSLEQLLEMDRAHFMHPSTHAYDHASGALPGRIITGGKGIRIEDHEGREYIDAFAGLYCVNIGYGREEVADAIYEQAKQLAYYHTYVGHSNDPVIELSSRIIEDWAPAGMKKVFYGMSGSDANETQIKLVWYYNNVLGRPNKKKIIARERSYHGSGIVTGSLTGLPSFHQHFDLPIDRVKHTVCPHWYNAPPGMSEAQFVAYCVEELEKLIAREGADTIAAFIAEPVMGTGGIVPPPQGYWEAIQAVLRKHDILLIADEVVCGFGRLGSKTGSEHYGIKPDLITVAKGLTSAYAPLSAVIVSEKVWDVIEKGSREHGVMGHGWTYSGHPVCAAAALANLDILERENLTGNAADVGAYLQQRLHEAFGAHPLVGEVRGVGMLAALEFMADKGARTPFDPALKVSQKVAAAALEDGLIVRALPHGDILGFAPPLVTTRAEVDEIVAIAKEAFDEVADAVL
modifications: Molecule produced by ancestral reconstruction
activity of ancestral reconstruction proteins in the coupled assays [2]: activity in accordance with p7

B2: p6: pyruvate: ω-amino acid transaminase from a newly isolated Pseudomonas sp., amino acid sequence SEQ ID NO:1 (protein, listed as Pseudomonas sp.)
chain: MGSSHHHHHHSSGLVPRGSHMNQQVNVAPSAAADLNLKAHWMPFSANRNFHKDPRIIVAAEGSWLVDDKGRRIYDSLSGLWTCGAGHSRKEIADAVAKQIGTLDYSPGFQYGHPLSFQLAEKIAQMTPGTLDHVFFTGSGSECADTSIKMARAYWRIKGQAQKTKLIGRARGYHGVNVAGTSLGGIGGNRKMFGPLMDVDHLPHTLQPGMAFTKGAAETGGVELANELLKLIELHDASNIAAVIVEPMSGSAGVIVPPKGYLQRLREICDANDILLIFDEVITAFGRMGKATGAEYFGVTPDIMNVAKQVTNGAVPMGAVIASSEIYDTFMNQNLPEYAVEFGHGYTYSAHPVACAAGIAALDLLQKENLIQQSAELAPHFEKALHGLKGTKNVIDIRNCGLAGAIQIAARDGDAIVRPFEASMKLWKEGFYVRFGGDTLQFGPTFNAKPEDLDRLFDAVGEALNGVA
pH optimum ([2]; UV absorbance at 340 nm, 28° C., pH range 7.5-10): ~10
smallest substrate accepted ([2]; coupled dehydrogenase assay): C3 (β-alanine)
activity with ω-amino acids including long chain C11 and C12 ([2]; coupled dehydrogenase assay, 340 nm, 28° C., pH 7.5-10): shown the desired activity with ω-amino acids, notably including long chain amino acids C11 and C12
product detected by GC-MS in large-scale reaction [3]: a peak corresponding to the mass of the C11 diacid was also found in large concentrations

B3: GabT: Gamma-aminobutyrate Transaminase; E.C. 2.6.1.19, from E. coli strain BL21-DE3, N-terminal His6-tag (protein, listed as Escherichia coli)
chain: MNSNKELMQRRSQAIPRGVGQIHPIFADRAENCRVWDVEGREYLDFAGGIAVLNTGHLHPKVVAAVEAQLKKLSHTCFQVLAYEPYLELCEIMNQKVPGDFAKKTLLVTTGSEAVENAVKIARAATKRSGTIAFSGAYHGRTHYTLALTGKVNPYSAGMGLMPGHVYRALYPCPLHGISEDDAIASIHRIFKNDAAPEDIAAIVIEPVQGEGGFYASSPAFMQRLRALCDEHGIMLIADEVQSGAGRTGTLFAMEQMGVAPDLTTFAKSIAGGFPLAGVTGRAEVMDAVAPGGLGGTYAGNPIACVAALEVLKVFEQENLLQKANDLGQKLKDGLLAIAEKHPEIGDVRGLGAMIAIELFEDGDHNKPDAKLTAEIVARARDKGLILLSCGPYYNVLRILVPLTIEDAQIRQGLEIISQCFDEAKQ
modifications: N-terminal His6-tag
notes: Gamma-aminobutyrate Transaminase; E.C; 2.6.1.19, from E. coli strain BL21-DE3, N-terminal His6-tag
substrate scope of GabT [4]: C4-C8 omega-amino acids

B4: p7N48: de novo peptide sequence based on p7, produced by ancestral reconstruction; SEQ ID NO:12 (protein)
chain: MTDTDDLLEMDRAHFFHPSTHLRDHASGELPGRIITGGKGIRIQDSEGREYIDAFAGLYCVNVGYGRTEIADAIYEQAKELAYYHTYVGHSNEPIIELSERIIREWAPAGMSKVYYGMSGSDANETQIKLVWYYNNVLGRPQKKKIISRQRGYHGSGIMTGSLTGLPAFHNHFDLPLEPIRHTTCPHYYRAPAGMSEAEFSRHCADELEKMILAEGPDTVAAFIGEPVMGTGGIVPPPEGYWEAIQAVLNKYDILLIADEVVCGFGRTGSMFGSHHYGMKPDLITVAKGLTSAYAPLSGVIVGEKVWKVLEQGSDQYGPIGHGWTYSGHPICAAAALANLDIIERENLTGNAADTGAYFQQRMRETFGDHPLVGEVRGVGLMAALEFVADKDKRTRFDPSLKVGPRVSAACLEDGMIARAMPHGDILGFAPPLVITRAEVDEIVDIAKQAVDAVADELV
modifications: Molecule produced by ancestral reconstruction
activity of ancestral reconstruction proteins in the coupled assays [2]: activity in accordance with p7
